The chains are these.
B1: Twister Ribozyme (parent)
chain: AACACUGCCAAUGCCGGUCCCAAGCCCGGAUAAAAGUGGAGGGGGCGG

In the data set the parent is B1. In words: self-cleavage, relative activity (ratio to wild type); higher = more cleavage; co-transcriptional.
Turning to G7A U18A, the self-cleavage is 0.0724.
To G44A C46A belongs 0.878.
On to A22U A32G, for which the self-cleavage amounted to 0.786.
Next, G7U C20U: 0.0823.
Next, C8A U18G: 0.0805; C26G A32U: 0.193.
Next, C21G A33C: 0.152; C20A A22U: 0.0761; G24A G36C: 0.12.
With C19G G38A, the self-cleavage is 0.132.
Regarding G17C U31G, the self-cleavage is 0.139.
A4U U31C: the self-cleavage was found to be 0.0955.
As to C21A G39U, the self-cleavage was determined as 0.0973.
In the case of C27U G38A, the self-cleavage amounted to 0.72.
To A2U C15G belongs 0.0661.
For the variant C27A G38U, the self-cleavage amounted to 0.33.
Next, C9G G39U: 0.147.
On to U6G C27U, for which the self-cleavage came to 0.186.
Next, C27G G29U: 0.0759; C20A C27U: 0.0852; C20U U37C: 0.192.
Take A10C A32C: the self-cleavage stood at 0.821.
To C5A G48A belongs 0.539; to U18A C21G, 0.395; to A10U G38A, 1.04.
For the variant G13C C25U, the self-cleavage is 0.163.
To G13A G24A belongs 0.0967.
For C9G C15G, the self-cleavage is 0.0512.
Regarding C8A G41C, the self-cleavage is 0.124.
Next, C14G U18A: 0.0727.
Turning to C8G A30U, the self-cleavage came to 0.409.
In the case of A4C G16U, the self-cleavage worked out at 0.107.
C21U A33C: the self-cleavage came to 0.119.
In the case of U37C G45A, the self-cleavage was found to be 0.691.
Take C27G G36A: the self-cleavage was found to be 0.0994.
Consider A2G G38C, for which the self-cleavage worked out at 0.118.
Consider G7U A11G, for which the self-cleavage was determined as 0.131.
On to A22C A23U, for which the self-cleavage was 0.243.
Regarding G7A C27G, the self-cleavage was determined as 0.0632.
Next, G7U A10G: 0.237; A32G A33G: 0.654; C19G G36A: 0.101.
Consider G13U G41C, for which the self-cleavage was determined as 0.149.
As to C20A A23C, the self-cleavage turned out to be 0.1.
Next, A32C G47A: 0.764; G39A G45A: 0.418.
Regarding U18G A23U, the self-cleavage turned out to be 0.0485.
For C8A A30U, the self-cleavage is 0.284.
To A30G G38A belongs 0.853.
As to A4U A22C, the self-cleavage turned out to be 0.0902.
Turning to C8U A33G, the self-cleavage amounted to 0.25.
G28C U31A: the self-cleavage was found to be 0.814.
To A23C G39C belongs 0.103; to U6C U18A, 0.0773; to A30C G39U, 0.106.
C25A G44A: the self-cleavage is 0.169.
Next, C14U G16C: 0.36; G16A G29U: 0.663.
In the case of G13U C27G, the self-cleavage was 0.0965.
As for C19G C26G, the self-cleavage worked out at 0.0807.
Next, U12G A40C: 0.261.
On to G16U C26U, for which the self-cleavage worked out at 0.15.
As to C5G C46G, the self-cleavage worked out at 0.915.
With C9U G47A, the self-cleavage was 0.425.
As to C25A G48U, the self-cleavage was 0.0867.
Next, A2C U6A: 0.0688; C5G G44U: 0.646; G17C G43U: 0.0878.
On to G17C G43A, for which the self-cleavage is 0.0872.
As for A1G U6G, the self-cleavage stood at 0.0944.
Take A2C A22C: the self-cleavage came out at 0.0812.
Take A1C U6A: the self-cleavage came to 0.189.
Next, G24A G28C: 0.0749; G24A G28U: 0.0869.
As for U12C G29C, the self-cleavage came to 0.877.
With U6A G42A, the self-cleavage worked out at 0.198.
To A4G G17A belongs 0.473; to C8A A32U, 0.275.
For the variant U18C A33U, the self-cleavage was 0.542.
With C8A G16C, the self-cleavage amounted to 0.0923.
As for A32G A40G, the self-cleavage came to 0.147.
A10U A35G: the self-cleavage came to 0.808.
Next, G24A C25U: 0.0836; C26G C27A: 0.107.
To A4G A30G belongs 0.81; to A22C G29U, 0.89.
C20U C27A: the self-cleavage stood at 0.171.
On to A22G G47U, for which the self-cleavage was 0.136.
For C5G G41U, the self-cleavage is 0.154.
Take A30U A34G: the self-cleavage was 0.937.
To A11U U31A belongs 0.918.
To G24C A30C belongs 0.0817; to A10U U12G, 0.759; to A4U G36C, 0.0838.
Next, A32C C46G: 1.03; A10C G28U: 0.811; A1C A2C: 1.36.
Take G13U G39A: the self-cleavage turned out to be 0.113.
Turning to G13C U37G, the self-cleavage amounted to 0.125.
U12A A22C: the self-cleavage is 1.08.
To G7A G29A belongs 0.325.
On to A11C G47A, for which the self-cleavage was found to be 0.836.
To G24A A33U belongs 0.0989; to A2U U12G, 0.557; to G29A G41U, 0.461.
Next, C19A G42C: 0.197; U12A G13C: 0.811.
For the variant G17U A23U, the self-cleavage came out at 0.159.
To G17U A23C belongs 0.0677; to G17A C21U, 0.0984; to G13C G28A, 0.307.
To G38A G47C belongs 0.522; to C19U A34U, 0.56.
With A32U A33U, the self-cleavage stood at 0.938.
Next, U6A G24A: 0.116; A11U G17U: 0.264; G13U G17C: 0.0903.
C3U U31A: the self-cleavage amounted to 0.249.
To A40C C46G belongs 0.218.
With A4U U12A, the self-cleavage is 0.0897.
To A10C A34C belongs 0.283; to G44C G48A, 0.289; to U31C G43A, 0.323.
As for U12C A34C, the self-cleavage is 0.382.
To G29U G36U belongs 0.212; to G28A G29A, 0.898.
Turning to G17U A32U, the self-cleavage is 0.294.
With C3A A10C, the self-cleavage is 0.308.
On to U6C G28A, for which the self-cleavage worked out at 0.319.
To A2C G28A belongs 0.0374; to G7C G28C, 0.0717.
To C19G C46A belongs 0.18; to G17A G29U, 0.336.
For the variant G13A G36A, the self-cleavage stood at 0.162.
Next, G13A G36U: 0.139.
To G7U C26U belongs 0.0446.
Turning to A4U C8G, the self-cleavage was 0.13.
Take C14G G39U: the self-cleavage came out at 0.0771.
For the variant G13U G44U, the self-cleavage stood at 0.428.
Next, G24U G47C: 0.131.
To C15U A40G belongs 0.162.
As for A1C G41U, the self-cleavage is 0.199.
Take C3G G43U: the self-cleavage was 0.124.
To G24U G48C belongs 0.127; to G16A C20U, 0.837; to A32G G38A, 0.846.
A32G G38C: the self-cleavage was 0.892.
Take G16U C20A: the self-cleavage turned out to be 0.109.
Next, A22U G29C: 0.604; G39U G42A: 0.104; G28A U31C: 0.835.
Take C21G G47A: the self-cleavage is 0.0718.
To A1C A30U belongs 0.177.
To C9A A33C belongs 0.603.
As to C5U C46A, the self-cleavage amounted to 0.764.
Turning to C14U G29C, the self-cleavage amounted to 1.09.
For the variant G16A G47A, the self-cleavage came to 0.702.
To A2C C3G belongs 0.127.
As to A34U G38C, the self-cleavage amounted to 0.638.
Take G7U G48C: the self-cleavage amounted to 0.123.
To G36U G44U belongs 0.355.
In the case of A1G G39U, the self-cleavage came out at 0.198.
For U18C G39U, the self-cleavage turned out to be 0.104.
To A2U G38U belongs 0.184.
Take A23G G47C: the self-cleavage came out at 0.209.
Take C15U C20A: the self-cleavage came out at 0.176.
As for U12A C26U, the self-cleavage is 0.563.

The values are drawn from the RNAGym collection of RNA variant scans (doi:10.7554/elife.80360).
